Experimental data taken from PMC10072072 (mAbs, 2023).
Where a chain is given by its changes, count along the chain named. Names and notes keep the numbering of the source. Values belong to the binder of their own block, whether it stands above or below them.

Legend:
[1] = target: Human CD3 epsilon-delta (εδ) heterodimer, Fc fusion (Homo sapiens, UniProt P07766;P04234); experiment: BLI
[2] = target: Cyno CD3εδ heterodimer, Fc fusion (Macaca fascicularis, UniProt Q95LI5;Q95LI8); experiment: BLI
[3] = target: CD3 on the surface of human Jurkat T cells (Homo sapiens (Jurkat), UniProt P07766;P04234); experiment: flow cytometry on cells
Sequence of CD3 on the surface of human Jurkat T cells (P07766 23-207, one chain of several): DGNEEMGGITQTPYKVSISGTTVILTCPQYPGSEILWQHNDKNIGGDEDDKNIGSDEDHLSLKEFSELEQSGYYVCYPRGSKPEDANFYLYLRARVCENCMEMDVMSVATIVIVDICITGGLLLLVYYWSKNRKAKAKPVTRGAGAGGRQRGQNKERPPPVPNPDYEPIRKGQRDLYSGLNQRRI

[4] = target: CD3 on the surface of cyno HSC-F T cells (Macaca fascicularis (HSC-F), UniProt Q95LI5;Q95LI8); experiment: flow cytometry on cells
Sequence of CD3 on the surface of cyno HSC-F T cells (Q95LI5 22-198, one chain of several): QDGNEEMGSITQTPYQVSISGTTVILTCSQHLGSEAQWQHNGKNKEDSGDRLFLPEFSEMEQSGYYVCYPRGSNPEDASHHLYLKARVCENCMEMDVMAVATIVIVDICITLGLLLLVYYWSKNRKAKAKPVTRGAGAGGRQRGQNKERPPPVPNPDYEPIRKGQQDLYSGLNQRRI

Sequence of Cyno CD3εδ heterodimer, Fc fusion (Q95LI5 22-117, stated change not applied, chain 1 of 2): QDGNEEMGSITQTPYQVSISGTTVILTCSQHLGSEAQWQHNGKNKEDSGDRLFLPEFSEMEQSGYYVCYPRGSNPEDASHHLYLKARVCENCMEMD
Sequence of Cyno CD3εδ heterodimer, Fc fusion (Q95LI8 22-100, stated change not applied, chain 2 of 2): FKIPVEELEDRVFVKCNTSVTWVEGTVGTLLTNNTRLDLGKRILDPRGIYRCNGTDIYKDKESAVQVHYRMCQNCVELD
Sequence of Human CD3 epsilon-delta (εδ) heterodimer, Fc fusion (P07766 23-126, stated change not applied, chain 1 of 2): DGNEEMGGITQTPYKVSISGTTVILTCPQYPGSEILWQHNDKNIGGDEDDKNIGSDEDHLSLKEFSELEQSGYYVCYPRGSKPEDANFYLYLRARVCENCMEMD
Sequence of Human CD3 epsilon-delta (εδ) heterodimer, Fc fusion (P04234 22-100, stated change not applied, chain 2 of 2): as the sequence (Q95LI8 22-100, stated change not applied, chain 2 of 2) above, with V5I, K15N, V20I, T32S, N33D, N34I, A64T, N74S counted along it

- binding result [1]: binds
- binding result [2]: binds
- binding result [3]: binds
- binding result [4]: binds
B1: ADI-26906 IgG1 variant L3-R94E (antibody, V domains shown)
VH: QVQLVQSGAEVKKPGASVKVSCKASGFNIKDYYMHWVRQAPGQRLEWMGWIDLENANTIYDAKFQGRVTITRDTSASTAYMELSSLRSEDTAVYYCARDAYGRYFYDVWGQGTLVTVSS
VL: DIVMTQSPDSLAVSLGERATINCKSSQSLLNARTGKNYLAWYQQKPGQPPKLLIYWASTRESGVPDRFSGSGSGTDFTLTISSLQAEDVAVYYCKQSYSERTFGGGTKVEIK

- binding result [4]: binds
B2: ADI-26906 Fab (from CHO-produced IgG, papain digest) (Fab, V domains shown)
VH: B1 VH
VL: B1 VL with E100R

- binding result [2]: binds
- binding result [4]: binds
B3: ADI-26906 IgG1 (antibody, V domains shown)
VH: B1 VH
VL: B1 VL with E100R
